Results published in publication PMC4357719, “Roles of Rad51 paralogs for promoting homologous recombination in Leishmania infantum”.

Experiments:
Assay in all cases: competition EMSA; preferred substrate in mixture; 25 mM MOPS pH 7.0, 0.2% Tween-20, 1 mM CaCl2, 2 mM DTT; 25 nM 32P-DNA; 37 C 10 min, then 0.2% glutaraldehyde 15 min; 8% TBE acrylamide gel
Settings in all cases: protein: recombinant; tags: C-terminal 10xHis; N-terminal GST cleaved with PreScission; label: 32P on strand 3 (JYM1745); D-loop: 1:2 with unpaired bubble, 3 paired to 2 in the bubble
LiRad51-3 = target: T1, LiRad51-3 (Leishmania infantum, UniProt E9AHR7 1-687)
T1 sequence: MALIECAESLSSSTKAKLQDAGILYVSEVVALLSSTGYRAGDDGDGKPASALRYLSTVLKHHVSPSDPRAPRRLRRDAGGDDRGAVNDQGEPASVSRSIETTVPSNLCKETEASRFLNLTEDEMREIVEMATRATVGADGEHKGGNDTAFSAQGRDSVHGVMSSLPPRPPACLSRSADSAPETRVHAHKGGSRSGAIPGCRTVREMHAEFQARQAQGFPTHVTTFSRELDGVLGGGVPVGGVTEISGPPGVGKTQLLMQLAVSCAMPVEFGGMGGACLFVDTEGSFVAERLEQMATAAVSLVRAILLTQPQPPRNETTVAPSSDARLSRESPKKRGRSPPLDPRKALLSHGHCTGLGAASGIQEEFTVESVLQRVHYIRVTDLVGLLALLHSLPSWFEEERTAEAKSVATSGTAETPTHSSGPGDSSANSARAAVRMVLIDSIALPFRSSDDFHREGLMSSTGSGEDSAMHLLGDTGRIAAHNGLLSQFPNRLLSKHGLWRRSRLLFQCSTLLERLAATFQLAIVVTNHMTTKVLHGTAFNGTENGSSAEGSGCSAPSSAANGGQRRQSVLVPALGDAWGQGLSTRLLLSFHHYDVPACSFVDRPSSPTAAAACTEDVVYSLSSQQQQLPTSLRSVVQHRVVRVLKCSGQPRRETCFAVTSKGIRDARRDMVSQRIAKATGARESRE

LiRad51-6 = target: T2, LiRad51-6 (Leishmania infantum, UniProt A4I499 1-649)
T2 sequence: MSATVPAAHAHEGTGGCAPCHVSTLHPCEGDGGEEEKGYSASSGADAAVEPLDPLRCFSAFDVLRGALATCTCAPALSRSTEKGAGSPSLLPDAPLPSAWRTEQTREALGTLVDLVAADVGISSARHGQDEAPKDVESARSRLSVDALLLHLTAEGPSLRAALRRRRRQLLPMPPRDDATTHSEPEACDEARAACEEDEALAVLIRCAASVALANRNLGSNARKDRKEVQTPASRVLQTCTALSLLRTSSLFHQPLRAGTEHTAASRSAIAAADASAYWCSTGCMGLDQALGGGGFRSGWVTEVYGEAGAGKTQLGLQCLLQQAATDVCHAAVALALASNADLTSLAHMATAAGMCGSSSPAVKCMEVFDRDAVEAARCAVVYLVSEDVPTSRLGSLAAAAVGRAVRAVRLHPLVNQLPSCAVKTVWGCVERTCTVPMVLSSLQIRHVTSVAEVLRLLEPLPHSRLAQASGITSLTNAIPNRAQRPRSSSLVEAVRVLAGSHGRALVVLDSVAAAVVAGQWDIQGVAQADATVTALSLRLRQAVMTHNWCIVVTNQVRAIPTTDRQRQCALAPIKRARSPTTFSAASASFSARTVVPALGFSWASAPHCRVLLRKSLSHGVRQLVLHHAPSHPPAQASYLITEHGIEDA

LiRad51-4 = target: T3, LiRad51-4 (Leishmania infantum, UniProt A4HUT5 1-518)
T3 sequence: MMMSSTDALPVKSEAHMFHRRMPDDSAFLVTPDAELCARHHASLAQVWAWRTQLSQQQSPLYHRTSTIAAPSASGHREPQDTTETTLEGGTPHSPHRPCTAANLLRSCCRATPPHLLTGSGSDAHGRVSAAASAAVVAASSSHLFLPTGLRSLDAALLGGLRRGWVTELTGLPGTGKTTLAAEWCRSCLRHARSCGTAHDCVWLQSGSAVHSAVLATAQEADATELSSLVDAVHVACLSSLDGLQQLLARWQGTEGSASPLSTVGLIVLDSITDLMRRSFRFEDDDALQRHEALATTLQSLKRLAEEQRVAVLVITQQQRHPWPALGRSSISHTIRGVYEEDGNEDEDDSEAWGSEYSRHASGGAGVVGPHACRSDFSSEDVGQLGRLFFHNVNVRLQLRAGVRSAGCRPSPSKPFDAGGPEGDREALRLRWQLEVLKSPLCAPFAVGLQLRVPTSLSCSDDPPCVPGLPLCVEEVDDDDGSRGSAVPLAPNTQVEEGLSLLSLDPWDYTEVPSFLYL

Measured: binding result

B1: D-loop (JYM1395/JYM1396/JYM1745) (structured_DNA)
DNA 1: GCCAGGGACGGGGTGAACCTGCAGGTGGGCGGCTGCTCATCGTAGGTTAGTATCGACCTATTGGTAGAATTCGGCAGCGTCATGCGACGGC
DNA 2: GCCGTCGCATGACGCTGCCGAATTCTACCACGCTACTAGGGTGCCTTGCTAGGACATCTTTGCCCACCTGCAGGTTCACCCCGTCCCTGGC
DNA 3: AAGATGTCCTAGCAAGGCACCCTAGTAGC
binds: all assays above
